The values that follow come from article PMC11925728, “Homeodomain protein PRRX1 anchors the Ku heterodimers at DNA double-strand breaks to promote nonhomologous end-joining”.

Data set [1] has as its target His-PRRX1A (His-PA) (UniProt P54821-2 1-217). Nature of the data set: MST; 10 mM Mg2+; Kd only in figure; EMSA: 20 mM Tris-HCl pH 7.4, 10 mM MgCl2, 2.5% glycerol, 0.05% NP-40, 0.1 ug/ul BSA, RT, 200 nM DNA; MST: 20 mM Tris-HCl pH 7.4, 150 mM NaCl, 10 mM MgCl2, 2.5%. Conditions: protein: recombinant; tags: His (pET-28a); label: 3' 6-FAM on strand 1; blunt.
Data set [2] concerns the target MBP-PRRX1A (MBP-PA) (UniProt P54821-2 1-217). Nature of the data set: pull-down; EMSA: 20 mM Tris-HCl pH 7.4, 10 mM MgCl2, 2.5% glycerol, 0.05% NP-40, 0.1 ug/ul BSA, RT, 200 nM DNA; MST: 20 mM Tris-HCl pH 7.4, 150 mM NaCl, 10 mM MgCl2, 2.5%. Conditions: protein: recombinant, tags: N-term MBP (pMAL-c2X). For orientation: A gel shift assay detects complexes by their altered migration in electrophoresis.

The target in data set [3] is MBP-PA HD (UniProt P54821-2 94-153). The data set is described as above. Conditions: protein: recombinant; tags: N-term MBP; label: 3' biotin on strand 1; blunt.
Chain of MBP-PA HD (P54821 94-153): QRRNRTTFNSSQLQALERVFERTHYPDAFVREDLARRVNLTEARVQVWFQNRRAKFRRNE
For data set [4], the target named is MBP-PA NRRMut (UniProt P54821-2 1-217, N144A;R145A;R146A). The data set is described as above. Conditions: protein: recombinant; tags: N-term MBP; label: 3' biotin on strand 1; blunt.
Chain of MBP-PA NRRMut (P54821 other isoform, or with tags, fused parts or gaps N144A;R145A;R146A): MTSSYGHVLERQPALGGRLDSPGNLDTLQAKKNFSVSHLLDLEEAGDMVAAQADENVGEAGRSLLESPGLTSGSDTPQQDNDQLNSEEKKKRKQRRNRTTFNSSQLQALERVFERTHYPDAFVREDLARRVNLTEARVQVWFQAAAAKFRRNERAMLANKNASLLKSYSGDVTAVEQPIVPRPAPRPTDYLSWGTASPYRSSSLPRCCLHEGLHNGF
The target in data set [5] is MBP-PA R146A (UniProt P54821-2 1-217, R146A). Nature of the data set: pull-down; dsDNA, blunt inferred; EMSA: 20 mM Tris-HCl pH 7.4, 10 mM MgCl2, 2.5% glycerol, 0.05% NP-40, 0.1 ug/ul BSA, RT, 200 nM DNA; MST: 20 mM Tris-HCl pH 7.4, 150 mM NaCl, 10 mM MgCl2, 2.5%. Conditions: protein: recombinant, tags: N-term MBP, label: 3' biotin on strand 1.
Chain of MBP-PA R146A (P54821 other isoform, or with tags, fused parts or gaps R146A | R146A R146A): as the sequence (P54821 other isoform, or with tags, fused parts or gaps N144A;R145A;R146A) above, with A144N, A145R counted along it

Chain of MBP-PRRX1A (MBP-PA) (P54821 other isoform, or with tags, fused parts or gaps): as the sequence (P54821 other isoform, or with tags, fused parts or gaps N144A;R145A;R146A) above, with A144N, A145R, A146R counted along it
Chain of His-PRRX1A (His-PA) (P54821 other isoform, or with tags, fused parts or gaps): as the sequence (P54821 other isoform, or with tags, fused parts or gaps N144A;R145A;R146A) above, with A144N, A145R, A146R counted along it

B1: MST blunt (Oligo#3-S/#1-A) (dsDNA)
DNA 1: AAGATGTTGTTTACACGAGGGCTCGAGCCCTCGTGTAAACAACATCTTTTTTTG
DNA 2: CAAAAAAAGATGTTGTTTACACGAGGGCTCGAGCCCTCGTGTAAACAACATCTT
As for B1, the binding result in data set [1] is recorded as “binds”.

B2: 3' overhang DNA (Oligo#1-A/#2-S) (dsDNA)
DNA 1: CAAAAAAAGATGTTGTTTACACGAGGGCTCGAGCCCTCGTGTAAACAACATCTT
DNA 2: GAGCCCTCGTGTAAACAACATCTTTTTTTG
On to B2, for which the binding result in data set [2] (label: 3' biotin on strand 2, 3' overhang 24 nt (strand 1)) is “binds”.

B3: blunt dsDNA 54 bp, biotinylated (Oligo#1-S/#1-A) (dsDNA)
DNA 1: AAGATGTTGTTTACACGAGGGCTCGAGCCCTCGTGTAAACAACATCTTTTTTTG
DNA 2: CAAAAAAAGATGTTGTTTACACGAGGGCTCGAGCCCTCGTGTAAACAACATCTT
Consider B3, for which the binding result in data set [3] was “no binding”; in data set [2] (label: 3' biotin on strand 1, blunt), “binds”; in data set [4], “no binding”; in data set [5] it was “no binding”.

B4: 5' overhang DNA (Oligo#1-S/#2-A) (dsDNA)
DNA 1: AAGATGTTGTTTACACGAGGGCTCGAGCCCTCGTGTAAACAACATCTTTTTTTG
DNA 2: CAAAAAAAGATGTTGTTTACACGAGGGCTC
Take B4: the binding result in data set [2] (label: 3' biotin on strand 1, 5' overhang 24 nt (strand 1)) was “binds”.
As for GAGCCCTCGTGTAAACAACATCTTTTTTTG (ssDNA) [ssDNA Oligo#2-S], in data set [2] (label: 3' biotin, single strand), the binding result is recorded as “no binding”.
